Laboratory results: publication PMC2756588

T1: Nbp2, Q12163
T1 sequence (Q12163 103-180, looked up): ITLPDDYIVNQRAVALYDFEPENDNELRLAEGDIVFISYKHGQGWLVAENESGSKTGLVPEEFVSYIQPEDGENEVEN

T2: Myo5, Q04439
T2 sequence (Q04439 1072-1160, looked up): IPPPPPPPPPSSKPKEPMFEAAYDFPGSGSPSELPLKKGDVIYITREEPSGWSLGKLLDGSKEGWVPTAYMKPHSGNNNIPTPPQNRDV

T3: Boi1, P38041
T3 sequence (P38041 1-86, looked up): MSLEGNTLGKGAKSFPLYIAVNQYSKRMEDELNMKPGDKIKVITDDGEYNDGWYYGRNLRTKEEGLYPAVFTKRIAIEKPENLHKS

T4: Bud14, P27637
T4 sequence (P27637 247-328, looked up): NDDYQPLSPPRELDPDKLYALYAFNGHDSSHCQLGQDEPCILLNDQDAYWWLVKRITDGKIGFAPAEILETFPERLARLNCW

T5: Lsb1, P53281
T5 sequence (P53281 45-122, looked up): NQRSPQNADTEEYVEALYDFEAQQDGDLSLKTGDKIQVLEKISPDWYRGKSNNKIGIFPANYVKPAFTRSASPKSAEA

T6: Lsb4, P32793
T6 sequence (P32793 402-468, looked up): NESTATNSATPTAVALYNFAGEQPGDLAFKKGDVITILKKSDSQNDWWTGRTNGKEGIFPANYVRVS

T7: Sla1-3, P32790
T7 sequence (P32790 344-424, looked up): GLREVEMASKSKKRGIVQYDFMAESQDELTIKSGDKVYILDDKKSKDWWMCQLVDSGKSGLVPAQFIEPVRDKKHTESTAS

T8: Cdc25, P04821
T8 sequence (P04821 50-136, looked up): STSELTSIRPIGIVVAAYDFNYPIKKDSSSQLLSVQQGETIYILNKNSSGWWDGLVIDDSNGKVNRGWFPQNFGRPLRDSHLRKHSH

T9: Fus1, P11710
T9 sequence (P11710 432-512, looked up): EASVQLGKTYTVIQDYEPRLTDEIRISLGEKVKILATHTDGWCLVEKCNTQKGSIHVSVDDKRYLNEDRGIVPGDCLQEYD

T10: Pex13, P80667
T10 sequence (P80667 295-386, looked up): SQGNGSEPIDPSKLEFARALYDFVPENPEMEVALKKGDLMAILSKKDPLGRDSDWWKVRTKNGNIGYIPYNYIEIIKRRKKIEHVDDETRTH

T11: Lsb3, P43603
T11 sequence (P43603 385-451, looked up): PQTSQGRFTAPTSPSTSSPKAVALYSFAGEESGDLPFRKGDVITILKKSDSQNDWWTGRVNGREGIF

T12: Bzz1-2, P38822
T12 sequence (P38822 568-633, looked up): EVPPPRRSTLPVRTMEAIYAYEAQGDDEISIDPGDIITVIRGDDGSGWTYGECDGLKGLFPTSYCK

T13: Hof1, Q05080
T13 sequence (Q05080 590-669, looked up): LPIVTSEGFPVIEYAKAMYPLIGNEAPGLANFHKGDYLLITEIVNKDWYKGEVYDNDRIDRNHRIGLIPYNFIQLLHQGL

T14: Bzz1-1, P38822
T14 sequence (P38822 478-572, looked up): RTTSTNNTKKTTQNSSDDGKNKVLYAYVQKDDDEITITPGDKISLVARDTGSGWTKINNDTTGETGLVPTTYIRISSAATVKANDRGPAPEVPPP

T15: Pin3, Q06449
T15 sequence (Q06449 53-122, looked up): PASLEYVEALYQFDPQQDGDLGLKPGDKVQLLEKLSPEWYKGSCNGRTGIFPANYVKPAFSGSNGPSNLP

T16: Bbc1, P47068
T16 sequence (P47068 1-78, looked up): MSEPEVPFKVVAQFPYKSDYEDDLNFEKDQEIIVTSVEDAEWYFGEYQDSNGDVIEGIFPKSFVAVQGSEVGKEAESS

T17: Hse1, P38753
T17 sequence (P38753 208-285, looked up): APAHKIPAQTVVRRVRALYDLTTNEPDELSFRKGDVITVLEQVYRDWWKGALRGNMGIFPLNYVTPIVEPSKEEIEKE

T18: Sla1-2, P32790
T18 sequence (P32790 60-140, looked up): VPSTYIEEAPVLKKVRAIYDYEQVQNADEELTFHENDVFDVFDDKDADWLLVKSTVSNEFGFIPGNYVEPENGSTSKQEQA

T19: Cyk3, Q07533
T19 sequence (Q07533 1-83, looked up): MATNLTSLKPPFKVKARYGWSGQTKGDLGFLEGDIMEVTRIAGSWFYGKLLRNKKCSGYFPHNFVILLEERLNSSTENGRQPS

T20: Abp1, P15891
T20 sequence (P15891 535-592, looked up): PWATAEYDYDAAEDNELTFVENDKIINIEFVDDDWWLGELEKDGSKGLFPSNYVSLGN

T21: Boi2, P39969
T21 sequence (P39969 32-116, looked up): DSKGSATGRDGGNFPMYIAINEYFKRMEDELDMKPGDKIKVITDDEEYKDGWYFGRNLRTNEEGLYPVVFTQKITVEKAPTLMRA


What was measured:
Test in all cases: SPOT array
Nbp2, Q12163 = target: T1, Nbp2, Q12163; conditions: median of control spots 357
Myo5, Q04439 = target: T2, Myo5, Q04439; conditions: median of control spots 471
Boi1, P38041 = target: T3, Boi1, P38041; conditions: median of control spots 1162
Myo3, P36006 = conditions: median of control spots 468
Bud14, P27637 = target: T4, Bud14, P27637; conditions: median of control spots 956
GST = conditions: median of control spots 978
Lsb1, P53281 = target: T5, Lsb1, P53281; conditions: median of control spots 388
Lsb4, P32793 = target: T6, Lsb4, P32793; conditions: median of control spots 397
Sla1-3, P32790 = target: T7, Sla1-3, P32790; conditions: median of control spots 5475
Cdc25, P04821 = target: T8, Cdc25, P04821; conditions: median of control spots 969
Bem1-2, P29366 = conditions: median of control spots 4347
Bem1-1, P29366 = conditions: median of control spots 4282
Fus1, P11710 = target: T9, Fus1, P11710; conditions: median of control spots 1200
Pex13, P80667 = target: T10, Pex13, P80667; conditions: median of control spots 1341
Lsb3, P43603 = target: T11, Lsb3, P43603; conditions: median of control spots 406
Bzz1-2, P38822 = target: T12, Bzz1-2, P38822; conditions: median of control spots 4538
Hof1, Q05080 = target: T13, Hof1, Q05080; conditions: median of control spots 4086
Bzz1-1, P38822 = target: T14, Bzz1-1, P38822; conditions: median of control spots 4446
Pin3, Q06449 = target: T15, Pin3, Q06449; conditions: median of control spots 2171
Sho1, P40073 = conditions: median of control spots 1148
Rvs167, P39743 = conditions: median of control spots 2707
Bbc1, P47068 = target: T16, Bbc1, P47068; conditions: median of control spots 796
Hse1, P38753 = target: T17, Hse1, P38753; conditions: median of control spots 1727
Sla1-2, P32790 = target: T18, Sla1-2, P32790; conditions: median of control spots 712
Cyk3, Q07533 = target: T19, Cyk3, Q07533; conditions: median of control spots 1451
Abp1, P15891 = target: T20, Abp1, P15891; conditions: median of control spots 935
Boi2, P39969 = target: T21, Boi2, P39969; conditions: median of control spots 1161

Chain of Sho1, P40073 (P40073 287-367): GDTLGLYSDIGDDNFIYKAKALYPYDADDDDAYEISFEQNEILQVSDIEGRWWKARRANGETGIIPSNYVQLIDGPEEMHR
Chain of Bem1-2, P29366 (P29366 139-227): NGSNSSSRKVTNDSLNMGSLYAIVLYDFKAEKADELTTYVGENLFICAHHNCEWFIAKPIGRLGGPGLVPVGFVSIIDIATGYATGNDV
Chain of Bem1-1, P29366 (P29366 55-141): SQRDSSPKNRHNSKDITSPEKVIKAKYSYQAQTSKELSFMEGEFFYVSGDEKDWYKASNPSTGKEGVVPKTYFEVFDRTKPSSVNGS
Chain of Rvs167, P39743 (P39743 419-482): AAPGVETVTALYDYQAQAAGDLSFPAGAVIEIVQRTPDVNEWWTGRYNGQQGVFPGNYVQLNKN

Row | SPOT intensity (Nbp2, Q12163) | SPOT intensity (Myo5, Q04439) | SPOT intensity (Boi1, P38041) | SPOT intensity (Myo3, P36006) | SPOT intensity (Bud14, P27637) | SPOT intensity (GST) | SPOT intensity (Lsb1, P53281) | SPOT intensity (Lsb4, P32793) | SPOT intensity (Sla1-3, P32790) | SPOT intensity (Cdc25, P04821) | SPOT intensity (Bem1-2, P29366) | SPOT intensity (Bem1-1, P29366) | SPOT intensity (Fus1, P11710) | SPOT intensity (Pex13, P80667) | SPOT intensity (Lsb3, P43603) | SPOT intensity (Bzz1-2, P38822) | SPOT intensity (Hof1, Q05080) | SPOT intensity (Bzz1-1, P38822) | SPOT intensity (Pin3, Q06449) | SPOT intensity (Sho1, P40073) | other results | Binder
1 | 0 | 0 | 0 | 0 | 0 | 0 | 0 | 776 | 3 | 0 | 1 | 1 | 0 | 79 | 923 | 3 | 950 | 0 | 0 | 14 | SPOT intensity (Rvs167, P39743): 0; SPOT intensity (Bbc1, P47068): 0; SPOT intensity (Hse1, P38753): 184; SPOT intensity (Sla1-2, P32790): 1; SPOT intensity (Cyk3, Q07533): 0; SPOT intensity (Abp1, P15891): 3; SPOT intensity (Boi2, P39969): 0 | QQEQNTPPLPPKPKS
2 | 0 | 0 | 0 | 0 | 0 | 0 | 399 | 1310 | 0 | 0 | 0 | 0 | 1 | 490 | 646 | 0 | 1570 | 0 | 7 | 66 | SPOT intensity (Rvs167, P39743): 944; SPOT intensity (Bbc1, P47068): 5; SPOT intensity (Hse1, P38753): 0; SPOT intensity (Sla1-2, P32790): 0; SPOT intensity (Cyk3, Q07533): 0; SPOT intensity (Abp1, P15891): 0; SPOT intensity (Boi2, P39969): 2 | VQQDSLPKLPFRSWG
3 | 6 | 35 | 0 | 102 | 0 | 0 | 285 | 1360 | 0 | 0 | 0 | 0 | 0 | 35 | 941 | 0 | 0 | 0 | 175 | 29 | SPOT intensity (Rvs167, P39743): 2810; SPOT intensity (Bbc1, P47068): 2; SPOT intensity (Hse1, P38753): 3; SPOT intensity (Sla1-2, P32790): 6; SPOT intensity (Cyk3, Q07533): 0; SPOT intensity (Abp1, P15891): 141; SPOT intensity (Boi2, P39969): 0 | LPMNIQPDLPPRKIM
4 | 0 | 0 | 0 | 66 | 0 | 0 | 290 | 1220 | 0 | 1 | 2 | 1 | 0 | 536 | 771 | 0 | 63 | 1 | 13 | 7 | SPOT intensity (Rvs167, P39743): 1340; SPOT intensity (Bbc1, P47068): 13; SPOT intensity (Hse1, P38753): 1; SPOT intensity (Sla1-2, P32790): 0; SPOT intensity (Cyk3, Q07533): 0; SPOT intensity (Abp1, P15891): 4; SPOT intensity (Boi2, P39969): 1 | APERAVPILPPRNNV
5 | 0 | 18 | 1 | 99 | 0 | 1 | 266 | 965 | 0 | 2 | 1 | 1 | 0 | 58 | 706 | 1 | 1 | 0 | 5 | 3 | SPOT intensity (Rvs167, P39743): 1790; SPOT intensity (Bbc1, P47068): 8; SPOT intensity (Hse1, P38753): 0; SPOT intensity (Sla1-2, P32790): 0; SPOT intensity (Cyk3, Q07533): 0; SPOT intensity (Abp1, P15891): 23; SPOT intensity (Boi2, P39969): 0 | SSAAPPPPPRRATPE
6 | 0 | 14 | 0 | 92 | 0 | 1 | 30 | 424 | 0 | 3 | 3 | 0 | 0 | 68 | 432 | 0 | 0 | 1 | 8 | 21 | SPOT intensity (Rvs167, P39743): 525; SPOT intensity (Bbc1, P47068): 14; SPOT intensity (Hse1, P38753): 0; SPOT intensity (Sla1-2, P32790): 0; SPOT intensity (Cyk3, Q07533): 1; SPOT intensity (Abp1, P15891): 77; SPOT intensity (Boi2, P39969): 1 | APPPPPRRATPEKKP
